For 32 molecules, Kd, koff and kon results are on record in patent publication US20240368267A1 (KODIAK SCIENCES, published 2024).

Residue numbers refer to the chain shown, from its start. Numbers in names are those of the source.

The chains are these.
B1: anti-IL-6 antibody, heavy chain I51A, G66D / light chain WT (antibody, human IgG1, V domains shown)
VH: EVQLVESGGGLVQPGGSLRLSCAASGFTFSPFAMSWVRQAPGKGLEWVAKASPGGSWTYYSDTVTDRFTFSLDTSKSTAYLQMNSLRAEDTAVYYCARQLWGYYALDIWGQGTLVTVSS
VL: DIQLTQSPSSLSASVGDRVTITCSASISVSYMYWYQQKPGKAPKLLIYDMSNLASGVPSRFSGSGSGTDFTLTISSLQPEDFATYYCMQWSGYPYTFGQGTKVEIK
notes: Derived as m2; Engineered human IgG1
B2: anti-IL-6 antibody, heavy chain S35V, G66D / light chain WT (antibody, human IgG1, V domains shown)
VH: B1 VH with S35V, A51I
VL: B1 VL
notes: as for B1
B3: anti-IL-6 antibody, heavy chain I51G, G66D / light chain WT (antibody, human IgG1, V domains shown)
VH: B1 VH with A51G
VL: B1 VL
notes: as for B1
B4: anti-IL-6 antibody, heavy chain S35L, G66D / light chain WT (antibody, human IgG1, V domains shown)
VH: B1 VH with S35L, A51I
VL: B1 VL
notes: as for B1
B5: anti-IL-6 antibody, heavy chain I51W, G66D / light chain WT (antibody, human IgG1, V domains shown)
VH: B1 VH with A51W
VL: B1 VL
notes: as for B1
B6: anti-IL-6 antibody, heavy chain I51P, G66D / light chain WT (antibody, human IgG1, V domains shown)
VH: B1 VH with A51P
VL: B1 VL
notes: as for B1
B7: anti-IL-6 antibody, heavy chain S35G, G66D / light chain WT (antibody, human IgG1, V domains shown)
VH: B1 VH with S35G, A51I
VL: B1 VL
notes: as for B1
B8: anti-IL-6 antibody, heavy chain T63A, G66D / light chain WT (antibody, human IgG1, V domains shown)
VH: B1 VH with A51I, T63A
VL: B1 VL
notes: as for B1
B9: anti-IL-6 antibody, heavy chain S35T, G66D / light chain WT (antibody, human IgG1, V domains shown)
VH: B1 VH with S35T, A51I
VL: B1 VL
notes: as for B1
B10: anti-IL-6 antibody, heavy chain I51K, G66D / light chain WT (antibody, human IgG1, V domains shown)
VH: B1 VH with A51K
VL: B1 VL
notes: as for B1
B11: anti-IL-6 antibody, heavy chain S35W, G66D / light chain WT (antibody, human IgG1, V domains shown)
VH: B1 VH with S35W, A51I
VL: B1 VL
notes: as for B1
B12: anti-IL-6 antibody, heavy chain I51D, G66D / light chain WT (antibody, human IgG1, V domains shown)
VH: B1 VH with A51D
VL: B1 VL
notes: as for B1
B13: anti-IL-6 antibody, heavy chain S35I, G66D / light chain WT (antibody, human IgG1, V domains shown)
VH: B1 VH with S35I, A51I
VL: B1 VL
notes: as for B1
B14: anti-IL-6 antibody, heavy chain S35Y, G66D / light chain WT (antibody, human IgG1, V domains shown)
VH: B1 VH with S35Y, A51I
VL: B1 VL
notes: as for B1
B15: anti-IL-6 antibody, heavy chain S35A, G66D / light chain WT (antibody, human IgG1, V domains shown)
VH: B1 VH with S35A, A51I
VL: B1 VL
notes: as for B1
B16: anti-IL-6 antibody, heavy chain S35F, G66D / light chain WT (antibody, human IgG1, V domains shown)
VH: B1 VH with S35F, A51I
VL: B1 VL
notes: as for B1
B17: anti-IL-6 antibody, heavy chain I51L, G66D / light chain WT (antibody, human IgG1, V domains shown)
VH: B1 VH with A51L
VL: B1 VL
notes: as for B1
B18: anti-IL-6 antibody, heavy chain T63D, G66D / light chain WT (antibody, human IgG1, V domains shown)
VH: B1 VH with A51I, T63D
VL: B1 VL
notes: as for B1
B19: anti-IL-6 antibody, heavy chain S35D, G66D / light chain WT (antibody, human IgG1, V domains shown)
VH: B1 VH with S35D, A51I
VL: B1 VL
notes: as for B1
B20: anti-IL-6 antibody, heavy chain I51E, G66D / light chain WT (antibody, human IgG1, V domains shown)
VH: B1 VH with A51E
VL: B1 VL
notes: as for B1
B21: anti-IL-6 antibody, heavy chain I51V, G66D / light chain WT (antibody, human IgG1, V domains shown)
VH: B1 VH with A51V
VL: B1 VL
notes: as for B1
B22: anti-IL-6 antibody, heavy chain I51Q, G66D / light chain WT (antibody, human IgG1, V domains shown)
VH: B1 VH with A51Q
VL: B1 VL
notes: as for B1
B23: anti-IL-6 antibody, heavy chain S35E, G66D / light chain WT (antibody, human IgG1, V domains shown)
VH: B1 VH with S35E, A51I
VL: B1 VL
notes: as for B1
B24: anti-IL-6 antibody, heavy chain I51F, G66D / light chain WT (antibody, human IgG1, V domains shown)
VH: B1 VH with A51F
VL: B1 VL
notes: as for B1
B25: anti-IL-6 antibody, heavy chain S35Q, G66D / light chain WT (antibody, human IgG1, V domains shown)
VH: B1 VH with S35Q, A51I
VL: B1 VL
notes: as for B1
B26: anti-IL-6 antibody, heavy chain I51T, G66D / light chain WT (antibody, human IgG1, V domains shown)
VH: B1 VH with A51T
VL: B1 VL
notes: as for B1
B27: anti-IL-6 antibody, heavy chain S35K, G66D / light chain WT (antibody, human IgG1, V domains shown)
VH: B1 VH with S35K, A51I
VL: B1 VL
notes: as for B1
B28: anti-IL-6 antibody, heavy chain I51R, G66D / light chain WT (antibody, human IgG1, V domains shown)
VH: B1 VH with A51R
VL: B1 VL
notes: as for B1
B29: anti-IL-6 antibody, heavy chain I51S, G66D / light chain WT (antibody, human IgG1, V domains shown)
VH: B1 VH with A51S
VL: B1 VL
notes: as for B1
B30: anti-IL-6 antibody, heavy chain I51Y, G66D / light chain WT (antibody, human IgG1, V domains shown)
VH: B1 VH with A51Y
VL: B1 VL
notes: as for B1
B31: anti-IL-6 antibody, heavy chain I51H, G66D / light chain WT (antibody, human IgG1, V domains shown)
VH: B1 VH with A51H
VL: B1 VL
notes: as for B1
B32: anti-IL-6 antibody, heavy chain S35P, G66D / light chain WT (antibody, human IgG1, V domains shown)
VH: B1 VH with S35P, A51I
VL: B1 VL
notes: as for B1

T1 sequence (P05231 30-212 limits assumed): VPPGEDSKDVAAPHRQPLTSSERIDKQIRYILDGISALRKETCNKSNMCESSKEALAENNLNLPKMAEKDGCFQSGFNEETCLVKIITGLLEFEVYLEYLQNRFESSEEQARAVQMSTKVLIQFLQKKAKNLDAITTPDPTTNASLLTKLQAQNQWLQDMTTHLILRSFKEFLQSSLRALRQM

This experiment concerns the target T1, human IL-6 (human, UniProt P05231 30-212).
T1 construct: also called interleukin-6
Description: SPR (Biacore T200), antibody from cell supernatant captured on Protein A, IL-6 flowed over, 37 C. As to the method: Those four positions were selected based on their tolerance for mutations as observed in bacterial and mammalian screens. […] These cultures were centrifuged and supernatants containing secreted antibodies were harvested and diluted in HBS-EP+ running buffer (1:20 ratio).
Antibodies were captured on a Protein A chip (GE) by injecting 1:20 cell supernatant dilutions at 10 μL/min for 60 seconds. […] The sensor chip was regenerated by a 60 seconds injection of 10 mM Glycine pH 1.7 at the flow rate of […]. […] For this setup, 1 μg/mL of purified antibody was injected over a Protein A chip at 10 μL/min for 25 seconds. […] The sensor chip was regenerated by a 60 seconds injection of 10 mM Glycine pH 1.7 at flow rate of 50 μL/min. Data analysis for supernatant and purified samples were performed using BIAevaluation software (GE). All sensorgrams were double reference subtracted and fit using a 1:1 Langmuir binding model.
A general note: Surface plasmon resonance follows binding to a sensor surface in real time, without labels.
Molecule B1 came in with a Kd of 0.327 nM, a koff of 0.000576 s⁻¹ and a kon of 1.76e+06 M⁻¹ s⁻¹.

B2 had a Kd of 0.414 nM, a koff of 0.000469 s⁻¹ and a kon of 1.13e+06 M⁻¹ s⁻¹.

With B3, the Kd came out at 0.428 nM, the koff amounted to 0.000581 s⁻¹ and the kon turned out to be 1.36e+06 M⁻¹ s⁻¹.

For the molecule B4, binding was put at a Kd of 0.315 nM, the koff was 0.000351 s⁻¹ and the kon was found to be 1.11e+06 M⁻¹ s⁻¹.

In turn, B5 returned a Kd of 4.93 nM, a koff of 0.00943 s⁻¹ and a kon of 1.91e+06 M⁻¹ s⁻¹.

B6 showed a Kd of 387 nM, a koff of 0.00612 s⁻¹ and a kon of 15800 M⁻¹ s⁻¹.

On to B7, for which the Kd came out at 0.284 nM, the koff came to 0.00036 s⁻¹ and the kon was 1.27e+06 M⁻¹ s⁻¹.

For the molecule B8, binding was put at a Kd of 0.177 nM, the koff turned out to be 0.000496 s⁻¹ and the kon is 2.8e+06 M⁻¹ s⁻¹.

Molecule B9 returned a Kd of 0.297 nM, a koff of 0.000409 s⁻¹ and a kon of 1.38e+06 M⁻¹ s⁻¹.

B10: the Kd worked out at 0.291 nM, the koff stood at 0.000402 s⁻¹ and the kon stood at 1.38e+06 M⁻¹ s⁻¹.

In the case of B11, the Kd was 23.5 nM, the koff is 0.00217 s⁻¹ and the kon was determined as 92300 M⁻¹ s⁻¹.

As to B12, the affinity, expressed as Kd, was 2.69 nM; the koff came to 0.00267 s⁻¹; the kon came to 991000 M⁻¹ s⁻¹.

In turn, B13 came in with a Kd of 0.334 nM, a koff of 0.000376 s⁻¹ and a kon of 1.12e+06 M⁻¹ s⁻¹.

The molecule B14 came in with a Kd of 0.503 nM, a koff of 0.000551 s⁻¹ and a kon of 1.1e+06 M⁻¹ s⁻¹.

Molecule B15 had a Kd of 0.3 nM, a koff of 0.000494 s⁻¹ and a kon of 1.65e+06 M⁻¹ s⁻¹.

Take B16: binding was put at a Kd of 0.749 nM, the koff was found to be 0.00119 s⁻¹ and the kon is 1.59e+06 M⁻¹ s⁻¹.

The molecule B17 showed a Kd of 0.386 nM, a koff of 0.000733 s⁻¹ and a kon of 1.9e+06 M⁻¹ s⁻¹.

With B18, the Kd came to 0.204 nM, the koff stood at 0.000392 s⁻¹ and the kon was determined as 1.92e+06 M⁻¹ s⁻¹.

Take B19: the affinity, expressed as Kd, was 0.321 nM; the koff amounted to 0.000641 s⁻¹; the kon came to 2e+06 M⁻¹ s⁻¹.

B20 showed a Kd of 1.01 nM, a koff of 0.00076 s⁻¹ and a kon of 754000 M⁻¹ s⁻¹.

In the case of B21, the affinity, expressed as Kd, was 0.00369 nM; the koff worked out at 6.68e-06 s⁻¹; the kon amounted to 1.81e+06 M⁻¹ s⁻¹.

B22 displayed a Kd of 0.336 nM, a koff of 0.000648 s⁻¹ and a kon of 1.93e+06 M⁻¹ s⁻¹.

In turn, B23 had a Kd of 0.582 nM, a koff of 0.000509 s⁻¹ and a kon of 874000 M⁻¹ s⁻¹.

In the case of B24, binding was put at a Kd of 2.24 nM, the koff came out at 0.00305 s⁻¹ and the kon came out at 1.36e+06 M⁻¹ s⁻¹.

For B25, the Kd came out at 0.302 nM, the koff was determined as 0.000395 s⁻¹ and the kon is 1.31e+06 M⁻¹ s⁻¹.

Consider B26, for which the Kd was 0.232 nM, the koff stood at 0.000415 s⁻¹ and the kon was 1.79e+06 M⁻¹ s⁻¹.

Turning to B27, binding was characterised by a dissociation constant (Kd) of 0.557 nM, the koff was 0.000949 s⁻¹ and the kon stood at 1.7e+06 M⁻¹ s⁻¹.

The molecule B28 registered a Kd of 0.169 nM, a koff of 0.000202 s⁻¹ and a kon of 1.2e+06 M⁻¹ s⁻¹.

For the molecule B29, the Kd was 0.191 nM, the koff is 0.000362 s⁻¹ and the association rate constant (kon) turned out to be 1.89e+06 M⁻¹ s⁻¹.

Consider B30, for which binding was characterised by a dissociation constant (Kd) of 3.45 nM, the koff is 0.0051 s⁻¹ and the kon is 1.48e+06 M⁻¹ s⁻¹.

The molecule B31 showed a Kd of 0.348 nM, a koff of 0.000529 s⁻¹ and a kon of 1.52e+06 M⁻¹ s⁻¹.

For the molecule B32, the Kd came to 11.9 nM, the koff is 0.00123 s⁻¹ and the kon stood at 103000 M⁻¹ s⁻¹.

For orientation: Kd means the concentration at which binding is half-saturated. In general, koff refers to the first-order rate constant of dissociation. Higher therefore signals a short-lived complex. Broadly, the kon is the second-order rate constant of association. High values mean faster complex formation, low ones slower complex formation.
